{
  "source": "the nanobody polyreactivity screen of Harvey et al. (2022)",
  "data": [
    {"assay": "yeast display, Sf9 membrane polyspecificity reagent, FACS + sequencing; frameworks hold sequencing errors", "summary_of_the_method": "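Galactose induction of a Saccharomyces cerevisiae BJ5465 synthetic nanobody display library ran 36–48 hours. The cells were then stained for 1 hour at 4 °C with 10% biotinylated, detergent-solubilized Sf9 membrane reagent, pulled down on streptavidin microbeads and FACS-sorted into low and high (top ~1%) gates on expression and reagent-binding fluorescence. Labels for polyreactivity follow the gate of origin.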", "values": [
      {"sequence": "QVQLEESGGGLVQAGGSLRLTCDASGLIFSYYAMGWYRQAPGKERELVAAITGSGGTTYYADSVKGRFTISRDNAKNTVLLQMNSLKPEDTAVYYCATPPPEVWQRWYREYDYWGQGTQVTVSS", "polyreactivity (PSR sort gate)": "low polyreactivity"},
      {"sequence": "QVQLEESGGGLVQAGGSLSLSCAASGFIFPTYAMGWYRQAPGKERELVAVISGGGRTKYADSVKGRFTISRDNAKNTVYLQMNSLKPEDTAVYYCNADYWKGWTKFEYWGQGTQVTLSS", "polyreactivity (PSR sort gate)": "high polyreactivity"},
      {"sequence": "QVQLEESGGGLVQAGGSLSLSCAASGSIFYGYAMGWYRQAPGKERELVAAITSGGRTYYADSVKGRFTISRDNAKNTVYLQMNSLKPEDTAVYYCNAVYRKTSYGYWGQGTQVTVSS", "polyreactivity (PSR sort gate)": "high polyreactivity"},
      {"sequence": "QVQLEESGGGLVQAGGTLRLSCAASGSTYVPYAMGWNRQETGKERELVSAIRRRGDSTNYADSVKGRFTISRDNAKNTVYLQMNSLKPEDTAVYYCAVRPYRSACGSVTRGAYYYWGQGTQVTVSS", "polyreactivity (PSR sort gate)": "high polyreactivity"},
      {"sequence": "QVQLEESGGGLVQAGRSLRLSCAASGRTFNAYTMGWYRQAPGKERELVAAITSSGGNTYYADSVKGRFTISRDNVKNSVSLQINSLKPEDTAVYYCTTVYLYGTHDYWGQGTQVTLSS", "polyreactivity (PSR sort gate)": "low polyreactivity"},
      {"sequence": "QVQLEESGGGLVQAGVSLRLSCAASGRIFGVYTMGWYRQAPGKERELVAAISRTGGRTYYADSVKGRFTISRDNAKNTVYLQMNSLKPEDTAVYYCAADSRGEDYYYWGQGTQVTVSS", "polyreactivity (PSR sort gate)": "high polyreactivity"},
      {"sequence": "QVQLEESGGGLVQEGGSLRLICAASGSTFYVYARGWYRQAPGKERELVAAITGSTGSTYYADSVKGRFTISRDNAKNTVELQMNSLKTEVTAFYYCDADFYGVPIIYDYWRQGTQVTVSS", "polyreactivity (PSR sort gate)": "low polyreactivity"},
      {"sequence": "QVQLEESGGGLVQSGGSLRLSCAASGITFARYTMGWYRQAPGKERELVAAISSAGNTYYGDSVKGRFTISRDNAKNTVYLQMNSLKPEDTAVYYCAREYTYYPRWVGYDAYGEDYWGQGTQVTVSS", "polyreactivity (PSR sort gate)": "low polyreactivity"},
      {"sequence": "QVQLEESGGGLYQAGGSLRLSCAASGSILDFNAMVWYRQAPGKEMELVASIRWSGGSTYYADSVKGRFTISRDYAKNTVYFQMNSLKPEDTAVYYCAAVTYGYYRSRYSSIQPNEYDYLGQGTQVTVSS", "polyreactivity (PSR sort gate)": "high polyreactivity"},
      {"sequence": "QVQLEESGGGVVQAGGSLRLSCAASGRTFYHKAMGWYRQAPGKETQVVATINSGGSTYADSVKGRFTISRDNAKNTVYLQMNSVKPEDTAVYYCAATFWSRSRFYYGYDYWGQGTQVTVSS", "polyreactivity (PSR sort gate)": "high polyreactivity"},
      {"sequence": "QVQLEESGGGVVQAGGSLRLSCAASGSIFRKYAMGWYRQAPGKERELVATISWNGGRTHYADSVKGRFTISRDNAKNTVYLLMNSLKPEDTAVYYCNKDAASFRHFYGYGYWGQGTQVTVSS", "polyreactivity (PSR sort gate)": "low polyreactivity"},
      {"sequence": "QVQLEESGGRLVQAGGSLRLICAASGRIFRFYTMGWYIQAPGKERELVAAITSSGRTYYADSVKGRFTISRDNAKNTVYLQMKSLKPEDTAVYYCNKYFRPRTILPSPGEYLGQGTQVTVSS", "polyreactivity (PSR sort gate)": "high polyreactivity"},
      {"sequence": "QVQLEESGGRLVQAGGSLRLSCAASGLIFAVYAMGWYRQAPGKERELVASSTGSTYYADSVKGRFTISRDNAKNTVYLQMNSLKPEDHAVYYCAADIIRVLDIPLYYWGQGSQVTVSS", "polyreactivity (PSR sort gate)": "low polyreactivity"},
      {"sequence": "QVQLEESGGRLVQAGGSLRLSCAASGRTFDGNTMGWYRQAPGKERELVAAITYSGTSTYYADSVKGRFTISRDNAKNTVDVQMNSLKPEDTAVYYCNKPRYYSTYRRYYWGQGTQVTVSS", "polyreactivity (PSR sort gate)": "high polyreactivity"},
      {"sequence": "QVQLEESGRGLVPAGGSLRLSCAASGFTFDYNTMGWYRQAPGKERELVAAISFRGTSTYYADSVKGRFTISRDNAKNTVYLQMNSLKREDTAVYYCATRDYHVPGRFYYWGQGTQVTVSS", "polyreactivity (PSR sort gate)": "high polyreactivity"},
      {"sequence": "QVQLEESGRGLVQAGGSLRLSCAASGSTLNYNTMGWYRQAPGKVRELVATISSRGGRTDYADSVKGRFTFSRDNAKNNVYLQMNSLIPEYTAVYSCNALPRVVYTVGQSTFYYWGQGTQVTVSS", "polyreactivity (PSR sort gate)": "high polyreactivity"},
      {"sequence": "QVQLEESGRGLVQAGGSLRLSCAASVSTCCENAMGWYRQAPGKERELVAAISWGGGSKYYADSVKGRFTISRDNAMNTVYLQMNSLKQEDTAVYYCNADVFDDYGYFESDYWGQGTQVTVSS", "polyreactivity (PSR sort gate)": "low polyreactivity"},
      {"sequence": "QVQLEESGVGLVQAGGSLRLSCAASGFIFSFYAMGWSRQAPGKERELVAVISKSGGSTYYADSVKGRFTISRDNAKNTVYLQMNSLKPEDTAVYFCAADSTVGRLLSFDYWGQGTQVTVSS", "polyreactivity (PSR sort gate)": "low polyreactivity"},
      {"sequence": "QVQLEESGVGLVQAGGSLRLSCAASGSIYGYAMGWYRQSPGKQRELVASISSGGSTYYADSVKGRFTISRDNAKNSVYLQMNSLKPEDTAVYYCAARAYSYQAQSYYWGQGTQVTVSS", "polyreactivity (PSR sort gate)": "high polyreactivity"},
      {"sequence": "QVQLEESRGGLVHAGGSLRLSCAASGYSFYIYAMGWYRQAPGKERELVAAISSSGGRTYYADSVKGRFTISRDNAKNTVYLQMNSLKPEDTAVYYCNALYRYGWLYAPKYNSCGQGTQVTVSS", "polyreactivity (PSR sort gate)": "high polyreactivity"},
      {"sequence": "QVQLEESRGGLVQAGGSLRLICAASGFTFRQNAMGWYRQAPGKERELVAAISRGGGGTHYADSVKGRFSISRDNAKNTVYLQMNSLKPEDTAVYYCAKRRYPTFVVPVYYWGQGTQVTVSS", "polyreactivity (PSR sort gate)": "high polyreactivity"},
      {"sequence": "QVQLEESVGGLVQAGVSLRLSCAASGRFFYFYAMGWYRQAPAKERELVASISSGGITIYADSVKGRFTISRDNSKYTVYLQMYSLKREDTAVYYCNAGYASGKYSGVYLYGYLGQGTQVTVSS", "polyreactivity (PSR sort gate)": "low polyreactivity"},
      {"sequence": "QVQLEETGGGLVQAGGSLPLSCAASGRTFRFYTMGWYRQAPGKERELVAVISNGGSTNYADSVKGRFTISRDNANTTVYLQMNSLKPEDTAVYDCAAGWVWSGNDYYYWGQGTQVTVSS", "polyreactivity (PSR sort gate)": "low polyreactivity"},
      {"sequence": "QVQLEETGGGLVQAGGSLRLSCAASGLTFGVYAMGRYRQAPGKEMELVAAITWRGDTTYYADSVKGRFTISRYNAKNTVYLQMNSLKPEDSAVYYCAKDVPYRRVRSEYWGQGTQVTVSS", "polyreactivity (PSR sort gate)": "low polyreactivity"},
      {"sequence": "QVQLESGGGLVQAGGRLRLSCAASGSIIDQYVMGWYRQAPGKERELVAAISRGGRTYYADSVKGRFTISRDNAKNTVYLQMNSLKPVDSSVYYCAARSDVRGFDYWGQGTQVTVSS", "polyreactivity (PSR sort gate)": "low polyreactivity"},
      {"sequence": "QVQLESGGGLVQAGGSLRLRCEASGITFQLYDMGWYRQAPGKERELVAAINSSGGSTYYADSVKGRFTISRDNAKNTVYLQMNSLKPEDTAVYYCNVGFAPVTNDQPVSTEYDYWGQGTQVTVSS", "polyreactivity (PSR sort gate)": "low polyreactivity"},
      {"sequence": "QVQLESGGGLVQAGGSLRLSCAASGITFQLYDMGWYRQAPGKERELVAAINSSGGSTYYADSVKGRFTISRDNAKNTVYLQMNSLKPEDTAVYYCNVGFAPVTNDQPVSTEYDYWGQGTQVTVSS", "polyreactivity (PSR sort gate)": "low polyreactivity"},
      {"sequence": "QVQLEVSGGGLVQAGGSIRLSCAASGSTFGGNAMGWYRQAPRKERELVAAIDSGGSTYADSVKGRFTISRDNAKNTVYLQMNSLKPEDTAVYYCADWFSAYYSLYRHRGYWGQGTQVTVSS", "polyreactivity (PSR sort gate)": "low polyreactivity"},
      {"sequence": "QVQLGESAGGLVQAGGSLRLSCAATGRTFRWYTMGWYRQAPGKERELVAGIRSTGGSTYYADSVKGRFTISRDNAKNTVYLQMNSLKPEDTEVYYCAIVTLTSRYASYYYWGQGTQVTVSS", "polyreactivity (PSR sort gate)": "high polyreactivity"},
      {"sequence": "QVQLGESGEGLVQAGGSLRLSCAASGFTCGYYTMGLYRQAPGKERELVAAISSSGGRTYYADSVKGRFTISRDNAKNSVYFQMNSLKPEDTAVYYCNVYYISTDLYYWGQGTQVTVSS", "polyreactivity (PSR sort gate)": "high polyreactivity"},
      {"sequence": "QVQLGESGGGIVQAGGSLRLSCAASGRTLQQYVMGWYRQAPGKETELVAAITRGGRTNYADSVKGRFTISRDNAKNTVYLQRNSLKPEDTAVYYCNSRYPSRLVAWLDYWGQGTQVTVSS", "polyreactivity (PSR sort gate)": "low polyreactivity"}
    ]}
  ]
}
